Substitutions are numbered along the chain they refer to.
Legend:
[1] = target: T1, human EFNA4 expressed on cells (human, UniProt P52798 26-170); experiment: flow cytometry, MEC1 B-CLL cells (endogenous EFNA4), 10 µg/ml antibody
T1 sequence: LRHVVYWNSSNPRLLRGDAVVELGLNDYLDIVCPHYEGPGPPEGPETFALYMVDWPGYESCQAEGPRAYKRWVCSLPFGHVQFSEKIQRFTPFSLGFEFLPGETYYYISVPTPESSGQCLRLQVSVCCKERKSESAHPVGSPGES

[2] = target: T1, human EFNA4 expressed on cells; experiment: flow cytometry, MX-1 breast cells (endogenous EFNA4), 10 µg/ml antibody
[3] = target: T1, human EFNA4 expressed on cells; experiment: flow cytometry, HCC202 breast cells (endogenous EFNA4), 10 µg/ml antibody
[4] = target: T1, human EFNA4 expressed on cells; experiment: flow cytometry, Z138 mantle cell lymphoma cells (endogenous EFNA4), 10 µg/ml antibody
[5] = target: T1, human EFNA4 expressed on cells; experiment: cell-based or functional assay
[6] = target: T1, human EFNA4 expressed on cells; experiment: cell-based or functional assay; remark: listed apart in the source
[7] = target: T2, recombinant human EFNA4 extracellular domain fused to a histidine tag (human, UniProt P52798 26-170); experiment: SPR (BIAcore 2000), recombinant EFNA4 ECD-His
T2 construct: also called hEFNA4-ECD-His; not shown: histidine tag
T2 sequence: T1 sequence

[8] = target: T3, recombinant cynomolgus monkey EFNA4 extracellular domain fused to a histidine tag (cynomolgus monkey, UniProt A0A2K5U3S7 84-228); experiment: SPR (BIAcore 2000), recombinant EFNA4 ECD-His
T3 construct: extracellular domain; not shown: histidine tag
T3 sequence: T1 sequence with L1V, Y69F

[9] = target: T4, recombinant rat EFNA4 extracellular domain fused to a histidine tag (rat, UniProt D3ZEN1 26-173); experiment: SPR (BIAcore 2000), recombinant EFNA4 ECD-His
T4 construct: extracellular domain; also called rat antigen; not shown: histidine tag
T4 sequence: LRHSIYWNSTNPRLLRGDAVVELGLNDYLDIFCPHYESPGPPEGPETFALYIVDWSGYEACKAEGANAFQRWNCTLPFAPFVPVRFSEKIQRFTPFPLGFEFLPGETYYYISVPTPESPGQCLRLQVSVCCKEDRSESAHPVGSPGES

[10] = target: T5, human EFNA4 antigen (ephrin-A4 ligand) (human, UniProt P52798 26-170); experiment: Hu Ag Affinity (Humanized mAb); method not stated
T5 construct: also called Hu Ag
T5 sequence: T1 sequence

Ephrin-A1-His (R&D) [11] = target: T6, Ephrin-A1-His (R&D) (UniProt P20827 19-182); experiment: direct ELISA, Ephrin-A1-His coated on the plate, biotin-labeled huE22, streptavidin-HRP, OD450
T6 construct: also called Ephrin-A1 (EFNA1); EFNA1; not shown: His tag
T6 sequence (looked up): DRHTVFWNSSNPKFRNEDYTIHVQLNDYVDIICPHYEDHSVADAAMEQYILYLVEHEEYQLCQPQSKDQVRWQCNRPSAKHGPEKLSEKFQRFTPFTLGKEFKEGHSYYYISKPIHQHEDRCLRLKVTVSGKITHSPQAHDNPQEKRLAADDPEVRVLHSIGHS

Ephrin-A3-huFc (R&D) [12] = target: T7, Ephrin-A3-huFc (R&D) (UniProt P52797 23-214, limits assumed); experiment: direct ELISA, Ephrin-A3-huFc coated on the plate, biotin-labeled huE22, streptavidin-HRP, OD450
T7 construct: also called Ephrin-A3 (EFNA3); EFNA3; not shown: human Fc
T7 sequence (looked up): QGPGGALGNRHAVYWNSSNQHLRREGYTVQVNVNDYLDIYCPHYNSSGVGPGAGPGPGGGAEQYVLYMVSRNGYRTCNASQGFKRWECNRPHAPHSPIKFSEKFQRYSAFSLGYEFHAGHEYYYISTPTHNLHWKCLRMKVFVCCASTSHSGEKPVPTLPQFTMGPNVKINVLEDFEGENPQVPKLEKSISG

Ephrin-A4-huFc (R&D) = target: T8, Ephrin-A4-huFc (R&D) (human, UniProt P52798 26-170); experiment: direct ELISA, Ephrin-A4-huFc coated on the plate, biotin-labeled huE22, streptavidin-HRP, OD450
T8 construct: bought reagent; also called Ephrin-A4 (EFNA4); EFNA4; not shown: human Fc
T8 sequence: T1 sequence

Ephrin-A5-huFc (R&D) = target: T9, Ephrin-A5-huFc (R&D) (UniProt P52803 21-203); experiment: direct ELISA, Ephrin-A5-huFc coated on the plate, biotin-labeled huE22, streptavidin-HRP, OD450
T9 construct: also called EFNA5; not shown: human Fc
T9 sequence (looked up): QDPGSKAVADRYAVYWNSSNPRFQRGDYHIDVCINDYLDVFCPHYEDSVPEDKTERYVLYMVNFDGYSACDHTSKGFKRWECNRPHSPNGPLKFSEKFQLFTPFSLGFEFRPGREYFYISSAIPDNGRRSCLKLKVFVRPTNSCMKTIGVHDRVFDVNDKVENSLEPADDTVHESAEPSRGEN

[13] = target: T1, human EFNA4 expressed on cells; experiment: cell-based or functional assay; remark: listed apart in the source
[14] = target: T10, monomeric human Ephrin-A4 (human), P52798; experiment: SPR (BIAcore 2000), Eph receptor captured via anti-human antibody capture kit, monomeric human Ephrin-A4 12-400 nM as analyte, steady state affinity fit; details: remark: other sources report otherwise
T10 chain: T1 sequence

Ephrin-A1-His (R&D) [15] = target: T6, Ephrin-A1-His (R&D); experiment: direct ELISA, Ephrin-A1-His coated on the plate, biotin-labeled huE47, streptavidin-HRP, OD450
Protocol: (§1) Antibody binding was determined by direct ELISA with Ephrin-A1-His, Ephrin-A3-huFc, Ephrin-A4-huFc and Ephrin-A5-huFc (all from R&D) coated on BioOne Microlon (Greiner) plates in PBS overnight at 4° C.

Ephrin-A3-huFc (R&D) [16] = target: T7, Ephrin-A3-huFc (R&D); experiment: direct ELISA, Ephrin-A3-huFc coated on the plate, biotin-labeled huE47, streptavidin-HRP, OD450
Protocol: as §1

Non-binding control IgG (antibody)
Mean Channel Fluorescent (MCF) [1]: 7.2 | Mean Channel Fluorescent (MCF) [2]: 3.6 | Mean Channel Fluorescent (MCF) [3]: 15.6 | Mean Channel Fluorescent (MCF) [4]: 7.4

B1: humanized anti-EFNA4 antibody huE22 (antibody, human IgG1, kappa, V domains shown)
VH: QVQLVQSGAEVKKPGASVKVSCKASGYTFTGYYIHWVRQAPGQGLEWMGWIYPGNFNTKYNERFKGRVTMTTDTSTSTAYMELRSLRSDDTAVYYCAREDGSPYYAMDYWGQGTSVTVSS
VL: DIVMTQTPLSLSVTPGQPASISCRSSQSLVHSNGNTFLYWYLQKPGQSPQLLIYRVSNRFSGVPDRFSGSGSGTDFTLKISRVEAEDVGVYYCFQATHVPWTFGGGTKVEIKR
notes: human IgG1 / kappa; also called huE22 mAb; unconjugated huE22
specificity of saporin-mediated cytotoxicity, HEK293T-EFNA4 over HEK293T parental cells [5]: ~60 fold | Saporin-mediated cytotoxicity IC50 (MTS viability), HEK293T parent cells, huE22 plus saporin-conjugated anti-human Fab [6]: 174 ng/mL | Saporin-mediated cytotoxicity IC50 (MTS viability), HEK293T-EFNA4 cells, huE22 plus saporin-conjugated anti-human Fab [6]: 3 ng/mL | Kd [7]: 1.7 nM | koff [7]: 0.0033 s⁻¹ | kon [7]: 1.9e+06 M⁻¹ s⁻¹ | Kd [8]: 2.1 nM | koff [8]: 0.0078 s⁻¹ | kon [8]: 3.8e+06 M⁻¹ s⁻¹ | binding result [9]: no binding (tested: 400 nM antigen) | Kd [10]: 3.8 nM | binding result (Ephrin-A1-His (R&D) [11]): no binding (tested: 1000 ng/ml) | binding result (Ephrin-A3-huFc (R&D) [12]): no binding (tested: 1000 ng/ml) | EC50 (read off the curve) (Ephrin-A4-huFc (R&D)): ~4 ng/mL | binding result (Ephrin-A5-huFc (R&D)): no binding (tested: 1000 ng/ml)

B2: huE22-AcBut-CM antibody-drug conjugate (antibody, V domains shown)
VH: B1 VH
VL: B1 VL
modifications: AcBut-N-acetyl-gamma-calicheamicin dimethyl hydrazide (AcBut-CM) conjugated via lysine residues (sites not given); average DAR about 3 to 5
notes: also called huE22-AcBut-CM ADC; huE22-ActBut-CM
Anti-EFNA4-AcBut-CM cytotoxicity IC50 (MTS viability, 96 h), HEK293T-EFNA4 cells [13]: 1 ng/mL | Kd [7]: 2.3 nM | koff [7]: 0.0061 s⁻¹ | kon [7]: 2.6e+06 M⁻¹ s⁻¹ | Kd [8]: 2.7 nM | koff [8]: 0.011 s⁻¹ | kon [8]: 4.2e+06 M⁻¹ s⁻¹ | binding result [9]: no binding (tested: 400 nM antigen)

B3: recombinant EphB3 receptor (commercially available), P54753 34-559 (receptor, UniProt P54753 34-559, looked up)
chain: GCRALEETLMDTKWVTSELAWTSHPESGWEEVSGYDEAMNPIRTYQVCNVRESSQNNWLRTGFIWRRDVQRVYVELKFTVRDCNSIPNIPGSCKETFNLFYYEADSDVASASSPFWMENPYVKVDTIAPDESFSRLDAGRVNTKVRSFGPLSKAGFYLAFQDQGACMSLISVRAFYKKCASTTAGFALFPETLTGAEPTSLVIAPGTCIPNAVEVSVPLKLYCNGDGEWMVPVGACTCATGHEPAAKESQCRPCPPGSYKAKQGEGPCLPCPPNSRTTSPAASICTCHNNFYRADSDSADSACTTVPSPPRGVISNVNETSLILEWSEPRDLGGRDDLLYNVICKKCHGAGGASACSRCDDNVEFVPRQLGLTERRVHISHLLAHTRYTFEVQAVNGVSGKSPLPPRYAAVNITTNQAAPSEVPTLRLHSSSGSSLTLSWAPPERPNGVILDYEMKYFEKSEGIASTVTSQMNSVQLDGLRPDARYVVQVRARTVAGYGQYSRPAEFETTSERGSGAQQLQEQLPL
Kd [14]: 108 nM

B4: recombinant EphA1 receptor (commercially available), P21709 26-547 (receptor, UniProt P21709 26-547, looked up)
chain: KEVTLMDTSKAQGELGWLLDPPKDGWSEQQQILNGTPLYMYQDCPMQGRRDTDHWLRSNWIYRGEEASRVHVELQFTVRDCKSFPGGAGPLGCKETFNLLYMESDQDVGIQLRRPLFQKVTTVAADQSFTIRDLVSGSVKLNVERCSLGRLTRRGLYLAFHNPGACVALVSVRVFYQRCPETLNGLAQFPDTLPGPAGLVEVAGTCLPHARASPRPSGAPRMHCSPDGEWLVPVGRCHCEPGYEEGGSGEACVACPSGSYRMDMDTPHCLTCPQQSTAESEGATICTCESGHYRAPGEGPQVACTGPPSAPRNLSFSASGTQLSLRWEPPADTGGRQDVRYSVRCSQCQGTAQDGGPCQPCGVGVHFSPGARGLTTPAVHVNGLEPYANYTFNVEAQNGVSGLGSSGHASTSVSISMGHAESLSGLSLRLVKKEPRQLELTWAGSRPRSPGANLTYELHVLNQDEERYQMVLEPRVLLTELQPDTTYIVRVRMLTPLGPGPFSPDHEFRTSPPVSRGLTGGE
Kd [14]: 414 nM

B5: humanized anti-EFNA4 antibody huE15 (antibody, human IgG1, V domains shown)
VH: EVQLVESGGGLVKPGGSLRLSCAASGFTFSTYGMSWVRQAPGKGLEWVATISSGGTYTYYPDSVKGRFKISRDNAKNSLYLQMNSLRAEDTAVYYCTRHDPNDGYYFLFAYWGQGTLVTVSS
VL: EIVLTQSPGTLSLSPGERATLSCKASQSVGNNVAWYQQKPGQAPRLLIYYASNRYTGIPDRFSGSGSGTDFTLTISRLEPEDFAVYYCQQHYSSPLTFGAGTKLEIK
Kd [10]: 4.8 nM

B6: humanized anti-EFNA4 antibody huE47 (antibody, human IgG1, kappa, V domains shown)
VH: QVQLVQSGAEVKKPGASVKVSCKASGYTFTYFYMNWVRQAPGQGLEWVGQINPNNGGTAYAQKFQGRVTMTRDTSTSTVYMELSSLRSEDTAVYYCARWVGTHYFDYWGQGTTLTVSS
VL: EIVLTQSPATLSLSPGERATLSCRASQSVSSSSYTYIHWYQQKPGQAPRLLINFASNLESGIPARFSGSGSGTDFTLTISSLEPEDFAVYYCQHSWEIPPTFGGGTKLEIKR
notes: human IgG1 / kappa
Kd [10]: < 0.1 nM | binding result (Ephrin-A1-His (R&D) [15]): no binding (tested: 1000 ng/ml) | binding result (Ephrin-A3-huFc (R&D) [16]): no binding (tested: 1000 ng/ml)

From US20180296691A1 (Pfizer, published 2018)
